# Measurements published in patent US20250340637A1 (ABPRO, published 2025).
# Residue numbers refer to the chain shown, from its start.
# T1: CynoCD3E (cyno, UniProt Q95LI5 22-117, limits assumed)
# T1 construct: Recombinant analyte in SPR and antigen in ELISA; The construct is not described; also called cynomolgus CD3 epsilon
# T1 sequence (looked up): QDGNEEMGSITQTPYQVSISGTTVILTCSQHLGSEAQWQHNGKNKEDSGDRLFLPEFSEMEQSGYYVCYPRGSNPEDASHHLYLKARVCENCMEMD
# B1: VH3 (SEQ ID NO: 18) + VL6 (SEQ ID NO: 19) (antibody, V domains shown)
# VH: EVQLVESGGGLVQPGGSLKLSCAASGFTFNTYAMNWVRQAPGKGLEWVARIRSKYNNYATYYADSVKDRFTISRDDSKNTAYLQMNSLKTEDTAVYYCVRHGNFGNSYVSWFAYWGQGTLVTVSS
# VL: QTVVTQEPSLTVSPGGTVTLTCRSSTGAVTTSNYANWVQQKPGQAFRGLIGGTNKRAPGVPARFSGSLLGGKAALTLSGVQPEDEAIYFCALWYSNLWVFGGGTKLEIK
# notes: Humanized SP34 anti-CD3 variant; The sample heated at 42° C. is the same molecule and is marked under assay; also called VH3 + VL6
# B2: VH3 (SEQ ID NO: 18) + VL4 (SEQ ID NO: 20) (antibody, V domains shown)
# VH: B1 VH
# VL: B1 VL with I87E
# notes: Humanized SP34 anti-CD3 variant; The sample heated at 42° C. is the same molecule and is marked under assay; also called VH3 + VL4
# B3: VH2 (SEQ ID NO: 21) + VL6 (SEQ ID NO: 19) (antibody, V domains shown)
# VH: B1 VH with P41S
# VL: B1 VL
# notes: Humanized SP34 anti-CD3 variant; the text around it speaks of full-length bispecific antibodies; The sample heated at 42° C. is the same molecule and is marked under assay; also called VH2 + VL6
# B4: ABP100s.10.6 (antibody, V domains shown)
# VH: B1 VH with G44C
# VL: B1 VL with G102C, E107T, I108V, K109L
# B5: ABP100s.10.4 (antibody, V domains shown)
# VH: B1 VH with G44C
# VL: B1 VL with G102C, E107T, I108V, K109L
# B6: ABP100s.10.5 (antibody, V domains shown)
# VH: B1 VH with G44C
# VL: B1 VL with G102C, E107T, I108V, K109L
# B7: ABP100s.10.0.1 (antibody, V domains shown)
# VH: B1 VH with G44C, A113G
# VL: B1 VL with G102C, E107T, I108V, K109L
# B8: ABP100s.10.5.6 (antibody, V domains shown)
# VH: B1 VH with G44C
# VL: B1 VL with A91M, G102C, E107T, I108V, K109L
# B9: ABP100s.10.6.5 (antibody, V domains shown)
# VH: B1 VH with G44C, A113M
# VL: B1 VL with G102C, E107T, I108V, K109L
# B10: ABP100s.10.5.5 (antibody, V domains shown)
# VH: B1 VH with G44C, A113M
# VL: B1 VL with G102C, E107T, I108V, K109L
# B11: ABP100s.10.6.6 (antibody, V domains shown)
# VH: B1 VH with G44C
# VL: B1 VL with A91M, G102C, E107T, I108V, K109L
# B12: 32G4-V8-v5.5 (antibody, V domains shown)
# VH: B1 VH with A113M
# VL: B1 VL with E107T, I108V, K109L
# B13: 32G4-V8-v5.6 (antibody, V domains shown)
# VH: B1 VH
# VL: B1 VL with A91M, E107T, I108V, K109L
# B14: ABP100s.10.0.4 (antibody, V domains shown)
# VH: B1 VH with G44C, A63W
# VL: B1 VL with G102C, E107T, I108V, K109L
# B15: ABP100s.10.0.2 (antibody, V domains shown)
# VH: B1 VH with G44C, Y62K
# VL: B1 VL with G102C, E107T, I108V, K109L
# B16: ABP100s.10.0.3 (antibody, V domains shown)
# VH: B1 VH with G44C, S65K
# VL: B1 VL with G102C, E107T, I108V, K109L
# B17: ABP100s.10.5.3 (antibody, V domains shown)
# VH: B1 VH with G44C, S65K
# VL: B1 VL with G102C, E107T, I108V, K109L
# B18: ABP100s.10.6.3 (antibody, V domains shown)
# VH: B1 VH with G44C, S65K
# VL: B1 VL with G102C, E107T, I108V, K109L
# B19: ABP100s.10.5.4 (antibody, V domains shown)
# VH: B1 VH with G44C, A63W
# VL: B1 VL with G102C, E107T, I108V, K109L
# B20: ABP100s.10.5.2 (antibody, V domains shown)
# VH: B1 VH with G44C, Y62K
# VL: B1 VL with G102C, E107T, I108V, K109L
# B21: ABP100s.10.6.4 (antibody, V domains shown)
# VH: B1 VH with G44C, A63W
# VL: B1 VL with G102C, E107T, I108V, K109L
# B22: ABP100s.10.6.2 (antibody, V domains shown)
# VH: B1 VH with G44C, Y62K
# VL: B1 VL with G102C, E107T, I108V, K109L
# B23: 32G4-V8-v5.2 (antibody, V domains shown)
# VH: B1 VH with Y62K
# VL: B1 VL with E107T, I108V, K109L
# B24: 47D10-V7-v5.4 (antibody, V domains shown)
# VH: B1 VH with A63W
# VL: B1 VL with E107T, I108V, K109L
# B25: 32G4-V8-v5.4 (antibody, V domains shown)
# VH: B1 VH with A63W
# VL: B1 VL with E107T, I108V, K109L
# B26: 47D10-V7-v5.3 (antibody, V domains shown)
# VH: B1 VH with S65K
# VL: B1 VL with E107T, I108V, K109L
# B27: 32G4-V8-v5.3 (antibody, V domains shown)
# VH: B1 VH with S65K
# VL: B1 VL with E107T, I108V, K109L
# B28: 47D10-V7-v5.2 (antibody, V domains shown)
# VH: B1 VH with Y62K
# VL: B1 VL with E107T, I108V, K109L
# Molecular target: T2, HuCD3E (Homo sapiens, UniProt P07766 23-126, limits assumed)
# T2 construct: Recombinant analyte in SPR and antigen in ELISA; also called human CD3; human CD3 epsilon
# T2 sequence (P07766 23-126 limits assumed): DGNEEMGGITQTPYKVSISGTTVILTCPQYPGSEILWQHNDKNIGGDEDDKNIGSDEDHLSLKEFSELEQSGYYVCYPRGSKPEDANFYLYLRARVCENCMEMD
# Assay: SPR, Biacore 8K; antibody captured, CD3E as analyte
# Experimental: (§1) Initially, the affinity measurement of the anti-CD3 clones were determined using a Surface Plasmon Resonance (SPR) biosensor, Biacore 8K (GE Healthcare). The equilibrium dissociation constant (KD) was calculated from the ratio of kd over ka. To determine the contribution of a specific residue to antibody affinity and expression, paratope mapping was performed by screening of NNK libraries. In brief, the VH and VL of the parental antibody were searched by using NCBI Ig-Blast (www.ncbi.nlm.nih.gov/projects/igblast/) and CDRs were defined by the KABAT delineation system. All residues within CDRs were defined and mutated by NNK method. Each individual NNK library was generated per residue based on the FASEBA platform with a theoretical diversity at 20. The DNA encoding both heavy chain and light chain were inserted into a mammalian expression vector, transfected into CHO-S cells, and stable clones of highest expression were selected. Supernatants were collected from shaker flasks and purified on protein A affinity chromatography.
# (§2) Affinity ranking. Binding between the parental and affinity-tuned bispecific antibodies and human and cyno target proteins (HER2 and CD3) was validated by ELISA, and a Biacore 8K was used to study the kinetics of the interaction between the antigen and the bispecific antibodies.
Binder,Kd [nM],koff [s⁻¹],kon [M⁻¹ s⁻¹]
B1,1.25,0.000286,229000
B2,1.72,0.000331,192000
B3,1.01,0.000357,352000

# Molecular target: T1, CynoCD3E
# Assay: as above
# Experimental: as §1, §2
Binder,Kd [nM],koff [s⁻¹],kon [M⁻¹ s⁻¹]
B1,1.71,0.000469,274000
B2,2.14,0.000501,234000
B3,1.7,0.000821,483000

# Molecular target: T2, HuCD3E
# Assay: SPR, Biacore 8K; CD3 Affinity column: Hi
row,Binder,Kd [nM]
1,B4,< 10
2,B5,< 10
3,B6,< 10
4,B7,< 10

# Molecular target: T2, HuCD3E
# Assay: SPR, Biacore 8K; CD3 Affinity column: Low
# Experimental: as §1, §2
row,Binder,Kd [nM]
1,B8,> 100
2,B9,≥ 100
3,B10,> 100

# Molecular target: T2, HuCD3E
# Assay: SPR, Biacore 8K; CD3 Affinity column: Low
# Remark: another data set of the same source
row,Binder,Kd [nM]
1,B11,≥ 100
2,B12,> 100
3,B13,> 100

# Molecular target: T2, HuCD3E
# Assay: SPR, Biacore 8K; antibody captured, CD3E as analyte; sample after 24 h at 42° C.
# Experimental: as §1
# (§3) Thermal stability. […] After incubation, the supernatant was centrifuged at 4500 rpm, and undissolved substances was discarded. Heat-treated, purified full-length bispecific antibodies were re-evaluated for their concentrations, and affinity ranking of samples with thermal treatment to human and cyno CD3 was conducted.
# as §2
Binder,Kd [nM],koff [s⁻¹],kon [M⁻¹ s⁻¹]
B1,1.38,0.000343,249000
B2,1.5,0.000349,232000

# Molecular target: T1, CynoCD3E
# Assay: as above
# Experimental: as §1, §3, §2
Binder,Kd [nM],koff [s⁻¹],kon [M⁻¹ s⁻¹]
B1,1.36,0.000489,359000
B2,1.9,0.00049,257000

# Molecular target: T2, HuCD3E
# Assay: SPR, Biacore 8K; CD3 Affinity column: Med; lower end of the range
row,Binder,Kd [nM]
1,B14,≥ 10
2,B15,≥ 10
3,B16,≥ 10

# Molecular target: T2, HuCD3E
# Assay: SPR, Biacore 8K; CD3 Affinity column: Med; upper end of the range
row,Binder,Kd [nM]
1,B14,≤ 100
2,B15,≤ 100
3,B16,≤ 100

# Molecular target: T2, HuCD3E
# Assay: SPR, Biacore 8K; CD3 Affinity column: Med; lower end of the range
# Remark: another data set of the same source
row,Binder,Kd [nM]
1,B17,≥ 10
2,B18,≥ 10
3,B19,≥ 10
4,B20,≥ 10
5,B21,≥ 10
6,B22,≥ 10

# Molecular target: T2, HuCD3E
# Assay: SPR, Biacore 8K; CD3 Affinity column: Med; upper end of the range
# Remark: another data set of the same source
# Experimental: as §1, §2
row,Binder,Kd [nM]
1,B17,≤ 100
2,B18,≤ 100
3,B19,≤ 100
4,B20,≤ 100
5,B21,≤ 100
6,B22,≤ 100

# Molecular target: T2, HuCD3E
# Assay: SPR, Biacore 8K; CD3 Affinity column: Med; lower end of the range
# Remark: another data set of the same source
row,Binder,Kd [nM]
1,B23,≥ 10
2,B24,≥ 10
3,B25,≥ 10
4,B26,≥ 10
5,B27,≥ 10
6,B28,≥ 10

# Molecular target: T2, HuCD3E
# Assay: SPR, Biacore 8K; CD3 Affinity column: Med; upper end of the range
# Remark: another data set of the same source
row,Binder,Kd [nM]
1,B23,≤ 100
2,B24,≤ 100
3,B25,≤ 100
4,B26,≤ 100
5,B27,≤ 100
6,B28,≤ 100
